According to the domain aggregation screens of Martell et al. (2025):

Test: soluble fraction after stress (log2 fold change); higher = more stays soluble; pooled small domains, quantitative proteomics
Details: stress: pH 4
In short: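 Pooled custom libraries of small protein domains were subjected to pH 4 and measured by high-throughput quantitative proteomics. The log2 fold change in soluble amount per domain is reported, higher values meaning more remained soluble. This is used as a measure of aggregation propensity.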

Point of comparison: “HMQGPDPYAVLGIDRHADERAIKRAYRKLISEHHPDRLGDLPEDMRKRAESRASEINAAYDRIKEARGF”, “soluble fraction (log2)” value 0.13. Against it:
- HMQGEAMQETVKKLDAFLQDNSVSMSALARALGVSPSLISQFRSGSYKGDSQAIAAKINSYIDNHNKKSK — within 0.2 log units, 0.0656
- HMQGEKDDLWREVLDNPDAWWDNRERKNAPGGNPRYPDFKHKDSQTPLWIESRDTPQWAIDALL — lower, -0.406
- HMQGNGKVATELLKDIIASDNLYINAMRMLVMHYNSKGTNQVEMVKLLHNILDLVPDDEYANEILKSAKKA — lower, -0.637
- HMQGQVLQETARKARSQLDSEIPGFNDALYQNLIKSSENYGYKAEEVAQWVDPRAIKVLNDAYQFQQLKAG — lower, -0.25
- HMQGTTTELLIQKSALYEELNDPEKALNAMFDAFEMDSLNVNVLHRIVSLLLDKEENEKAILYNQLIIDH — lower, -0.507
- HMQHQSGLKSGEFEAISQQLQALLKENPLSLQEIKDKMQVTENHLIKVVSYLVSEEIIRQENGYLK — lower, -1.67
- HMQIAGLDDIDNRIIDLLLKNGRASYSEIGAAVGLSRTAAKNRIRALEASGIIRGYQAILDPQA — within 0.2 log units, 0.0596
- HMQIDDSVELSAIVEKLLAANPEQVEQLKNGKTKVLGYFVGLAMKETQGRANPQKVNELIQTHL — lower, -0.308
- HMQIDRLFDIVYTLLRKKSATAAELAERFGVSKRTILRDIETLSVAGIPILTSPGKGGGVSISSSF — lower, -0.423
- HMQIIETTVGRVLFNEKVPEAAGYINEVLTKKSLRDIIHGILKKTSVPETAAFLDEIKSLGYNFAF — lower, -0.264
- HMQIIEVPYSEFLKKLESGQISEVSRDSYQIVFTDRSQPPIIYKTGLMEDPGLVDKMQEAGVTFTSP — lower, -0.228
- HMQIKNVDYGTFLDMLDEKNVKEVEIEDEQIVFTDNADPTGYYTTGRMEDPDLVDRLHNSGATFSAI — lower, -0.841
- HMQILLASHAELAKGILSAVELIAGTQQNLKAYSAYTEAVDVHFKDQMLQDLNKMDPEDEVIL — within 0.2 log units, 0.0244
- HMQINLSEWVLAAREYAGPEMTQEKLAEHLGRTKANVSAMENGRSKPSFEQMMEIHRVTGYPLPYQ — within 0.2 log units, -0.0156
- HMQISDAGALLDAVRRVLAENPAQVEQFRAGKEKVMGFLVGQVMRATGGKANPQMLNDVLREELS — within 0.2 log units, 0.198
- HMQISDEGELSGIVRKIIDANPQSVADYKAGKKKAIGFLVGQIMIETKGRANPASVNELLIKKLE — within 0.2 log units, 0.105
- HMQISDNTILEDAVSRIIDENPKSVSDYFQGKEAVVGFFIGQIMRETKGTANPKIAREIVISHLEAI — lower, -0.819
- HMQISGIHLYERRITKDDEWAERKLSEISLAGSLVILILRNEHVVIPNGETVLKENDLLYISD — lower, -1.38
- HMQISGSEELEKIVQTVLEKNTDVVEEYKSGKTKVFAFLMGQVMKESRGKANPRLAKDILEKFLA — within 0.2 log units, 0.177
- HMQITAPVQKIDGVEYYMHKVEQGQTLYSISKLYNVGVKEIQKANQLGTEGIQLGQVLKVRKGG — within 0.2 log units, 0.00111
- HMQIYLTPEQFKIIDFMEQMGKITVKDVMDILNIPKRTAQLHLQKLKTLKMIAQTGKGPSSAYLL — lower, -0.797
- HMQKDAYVPDIISKLKSSRMIVVEGTIYPLLTRLKNTGLLSYRWEESLQGPPRKYYSITEQG — lower, -0.0816
- HMQKDYKTRLQEYYAKVGKKVNYMDSSTGPDHDKKFQTQVFLDKEIIGVGEGKSKKSSQQEAAKQALEKI — higher, ≥ 0.43
- HMQKFINQEHEKAYNLMLEKDYQQALKIFDDLIYLFPNEANLLSDRGVIFIHLNKKEAALQDFDQAVF — lower, -1.49
- HMQKIEKVDYGTFLKMIENGEIDQVNLTEKKISFTTDKDAETVYETGRVEDPNIVDRLYQADVEFTQEI — lower, -0.884
- HMQKIENYDQFVQAFKRLSGLDLKLYKENQMKRRINNFINNHGFKENYDQFFQAITGNKELYNAFFKHLTI — lower, -0.395
- HMQKKYLAVKEYLLEQINSGAYQPDEPIPPEREMAAMLGVNRMTLRRAVEELMYEGLLIRKKGSGTFLTK — lower, -0.714
- HMQKLSPKQRRGNIIELIKENPTITAKNISTIFNLNQRTIERDLAKLTEEGYIKYEGSSKDGKWVFL — higher, ≥ 0.43
- HMQKNKSVLFKDIVIAFNQNPKKLFNYKQLAADLDIHSEAERMLISQLLNDLKDQNFLEEVERGKYKLKL — lower, -0.479
- HMQKPIKPVKMHTVGPKENLSSIGRMYEVNGRVLANYNNIDYDKGLTIGQVLKIPPKGTTLEQVT — within 0.2 log units, 0.0149
- HMQKTIDWSQVDKEQYLSAMERSPVNDLEIKAILAKALTSDINNRELFMKGLDHSYYFEGYQLFKSE — lower, -0.939
- HMQKTQVVEVAGKSYQLTKMDARTGSYVAFKVAGVLAPSGGKTAEMAAALMGMPRKDFDELQSLLLRTV — higher, ≥ 0.43
- HMQKYSTIIGVIELRQSGIGYRTTKKRYNIGNSTVTLIMNRFHELGLSLEELKAMPPKKVEEAFYPPE — within 0.2 log units, -0.0306
- HMQLASILDDIPGIGKKRKENLLTHFGSFSKIQSADIDALAEVPGISRDLAETIHTYLKTHQ — within 0.2 log units, -0.0521
- HMQLDLSDPSKNKLDSIVSLPIKSLKAVEANGEILFMSENGRFVLRGQLYDIWYKDTLDTSAQIQDAATRI — within 0.2 log units, 0.179
- HMQLDLTSTLDHMYKQMRNDHPRALLMAVEKEMVLRALKETDGNQLRASDILGISRSTLRKRIEEFDINS — lower, -0.257
- HMQLEPLITSVIPVNFAKAGEVATTIKGKEVGLVSDRGSITAESRTNVLIVKDIKKNVDDISAMVKRLD — within 0.2 log units, -0.0177
- HMQLGEEAGDELVAIVRSVINDNDKALADYLAGKSSALKFLLGQVMRQTKGRADHALVQSLLEAELEAL — lower, -0.586
- HMQLHDTMKRVYEALDISEQKLAESLGLKLSTIINWQKNGISKIGINKLNQTFGLDMQWILTGQGEPFI — lower, -0.0735
- HMQLLDIGSAVRIIREPYFGRLGTVVELPPELMEIESGTHARVLKAKLDDGTVAVVPRANVEIIVE — lower, -1.34
- HMQLNNTDELEKIILKILENNPKQVDQFLAGKQKLLGFFVGQAMRATSGKANPKTVNDLLEKFLSK — lower, -0.335
- HMQLPDLDEIRQMRKRLDLSQRELAALAGVSQSLIAKIEKGSIDPSYDNVRKIFNAFENILKKRALE — lower, -0.495
- HMQLPIGDVKLSVEHLSSGTALQDISFEVHRGEIFGFLGLVGAGRSETAETIFGLREKTDGKISIDGTVL — within 0.2 log units, 0.117
- HMQLPTNAAAILRYLSSGAVKGVGSATAVRIVEKFGEETLNILEQDPLRLAEIRGISRDKAKKIGEDFASQ — within 0.2 log units, 0.0714
- HMQLSMLPYGFARRHGVLLVEQDEQPTLIHRAGITATVIAEVQRVAGQIDAWRLVDDARFDQQLAEVYRD — lower, -1.41
- HMQLTPAQHAILAYAIEHTGGKIEWFPDNIKGGARTKVLEGLFNKALITRDSTDWFVAAEGYDALGR — higher, 0.428
- HMQLYSLEVLSKKKVDLIENNKNLINLYFNKENGEYSYRLIFKNRKELYQVKDTLDNSSDVVSIKLDL — lower, -0.181
- HMQMGLNEAYRVLHVSPDAPWREVQSAYKERMAKSHPDKVSHLGEELQEKAKELTVEINKAYNTIKRYKK — within 0.2 log units, -0.0378
- HMQMKDRILRIMEHEGISPSKFAEEIGIQRSAMSHIISGRNNPSLDVLTKIMQRFTYVDTDWLLFGKGSMV — lower, -0.334
